For assay [1], the target named is SARS-CoV-1 receptor-binding domain (RBD), wild type (SARS-CoV-1). Description: flow cytometry on cells. In general terms: A flow cytometer gives signals particle by particle.
Assay [2] addresses SARS-CoV-2 spike receptor-binding domain, Wuhan-Hu-1 (WT RBD) (SARS-CoV-2) (UniProt P0DTC2). In words: flow cytometry on cells.

Where “and” joins values, the source holds several entries; their conditions need not be identical. Equal entries are not always repeated.

As a reminder, the Kd is the concentration at which binding is half-saturated. Read a high Kd as a looser complex. The EC25 is the concentration at which the effect reaches the 25% level. Higher therefore signals weaker potency. Regarding “angiotensin converting enzyme 2 (ACE2) peptidase domain, ACE2D (domain or fragment)”, in assay [1], the Kd is 1.51 nM and 1.72 nM and 1.9 nM. Besides, in assay [2], the EC25 came out at 2 nM.

The values are drawn from publication PMC13324855.
